Measurements published in the domain aggregation screens of Martell et al. (2025).

Experiment: soluble fraction after stress (log2 fold change); higher = more stays soluble; pooled small domains, quantitative proteomics
Conditions: stress: pH 4
Procedure, shortened: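 Custom libraries of small protein domains were pooled and measured with high-throughput quantitative proteomics after pH 4 stress. The read-out is the fold change in the amount of each domain that stays soluble after the acid stress, taken as a measure of aggregation propensity. Fold changes are on a log2 scale, and higher values mean more of the domain stayed soluble.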

Row | Sequence | soluble fraction (log2)
1 | HMVELVKVPALQGETVDEAIADIKDAGLEPGQVRYVESDLPKDTVTYQSVDAGEQVKAGTVINLQASKGP | 0.137
2 | HMSTSIADNSSITYKVRKGDSLASIAKRHGVNINDVMRWNSVITKASQIQPGDMLTLYVRDS | ≥ 0.43
3 | HMVVKSPLEMAFDKFREMRKKIRKPMTERAEELIWKELSKLAGEDSDLKIEILEQSIRNGWQDVYAVK | -0.064
4 | HMQNREQNILDGKSILDKELKRVGLLNQSAAIMAQEMKFNSQDDLFAALGSGATRIGQIINHLQKQS | 0.0793
5 | HMVADEGELLAIAREVVAANPKVFEDWKAGKQSAAQWFVGQIMKRTRGRANPQLALKLVTQALEEHAR | -0.21
6 | HMNNTIKFSVDSQNSGKRLDIFLTENIKNYTRSFLKKLIENRQVKLNNNFIISPSERVKFKDQININILQ | 0.199
7 | HMEVNMEEKMEFVHSYIKTHKTFLFRQLLSESKSRTQVIVTFLVILELIKGGKISVTQENRTDDILINSL | -0.521
8 | HMNKLSISALAETVSTKRKEKSMTQQDLSDATGINRALISRLEQKDFIPSIPQLEKLEEILGFELEEVF | -0.998
9 | HMSLSKQETEFLTTFSASGKRVFTYQQATDYWQSKVAATNVLGRLVRKGWLQRLERGLYMIIPLEAGPERF | -0.807
10 | HMKKPRKTSRKSIENAAIFYLQRFSSSIENLRRVLMRRVYRSAQYHNTKPEEDAKIVDSIIYRLIETGVL | -0.0658
11 | HMDGQPQLLIKNGQLLVSTALKNGMSANDLMFRLRTEGITDIRYVKRAVLEQNGQLTITQVGDD | -0.0398
12 | HMSVLNLQTDIPKKYTDVLGTSVKGRLNTLVHNVIINSVDRPVIQMSEEVHEAMQGLRIFMFENVYRNPV | 0.22
13 | HMAIELTPRQLDIIELVRKHAPITGEQIAELLGVTRPSIRSDLGLLVMLGYIDAKPKVGYFAGPRM | -0.893
14 | HMPSLNDRPDDVLYLFSYFLQSFSHRQVSLPKILKKALIQHDWWGNIRELHSVALRYYIFGDTLNGAYDSL | -0.895
15 | HMQPVLSDAEVNDLKNIAGGERGYNQLMDWAGNNLTAQDAKSYDDVLATGNKAAISFAIKALMGQYEDAN | -0.453
16 | HMNKTQLQIEDEVLKPLIAEIFSKSKGRFGARKIRSKLMGLGYTASERRILRLMKELGLSSAG | ≥ 0.43
17 | HMLGERIKQIRKQKKMTQTDVATGIITKSMLSMIENGKATPSLPALQAIARRLQVTVEELML | 0.0227
18 | HMQSEISRIGRILKERRLQLGYTQEYAAEKAGISYSYYTKIERGQQLPSLEVAMVLSKTFSLSMDRWL | -0.599
19 | HMVLSVRERMGIVLEKVNTETFTDFKELFTVEEGRAGAIVSLLAILQLMKDSLIQLVQNEPNGPIYVKAA | 0.22
20 | HMGQKASEVEKIFVELQQQIIRGDLPPGYRLVESQIAAQFGVSRTPARLAIERLATAGLVAHETNRGATVH | -0.36
21 | HMEKAKVPSVIGMTEANAKRTIRDAGFKVGRVTRVESEAYDKGKVIEQQYEAGSELEKKKPISIVVSKGKK | 0.152
22 | HMGAIVTVPDLAGRPQPGAEAELRRSGLVPKVRTSYSLTGTRGTVISQTPPAGSRVREGAEVEVVVSRGLN | 0.0493
23 | HMISQATMEKMGLTNRERQLVDFIVRGASNQEISEKMFISINTVKIHVSNIFRKAGVRSRTELMDKYP | -0.693
24 | HMQNVKIKAEVKGEVISPGVYELDEESRIQDLIDASGGFSDKAYYDNINLSMKLKDEMVLVVYDKDKI | -1.35
25 | HMELSSRQAMIVDIVRKYEPITSEQIADKLNLTRSALRPDLAVLTMIGILEARPRVGYFFTGK | -0.269

Row | Sequence | soluble fraction (log2)
26 | HMLSDAAAMESIAYEAIRQMEPDTYYIIGAGTTTRGIMEVLGLKNTLIGVDLIRNKELVANDLGGKELLSY | -0.796
27 | HMPQEMIEILATPNGWLRVRQGPGTNYPEITKVNSGEEFPLLEEKDSWFKIRIEEGQEGWISSQYAQKEE | -0.0319
28 | HMFEQRLRQAMKELRLKQVQVAGLTGKSRGAISQYLSGDRVPPDGVQREMAIALGLEADYFSR | 0.343
29 | HMDSTTHALALVRTLPRDQAEAVLLRVVADLDYADVAEIMGRSPGAVRVLVHRGLRRLEQELATRRT | -0.426
30 | HMEKALEVKYQKMVELLGDQSTFYVDEVKKIFPEMKKSSLYWNMSKLVEGGYLRRIRNGVYAFNE | -0.124
31 | HMLTEREQDTLNFIRQYIDEQGRSPLVSEIAKGLGIKSQGTTHRYIQALVDAGLLERHVGRTRGLHLT | -0.352
32 | HMSSIVLTARSGRAALAYRVKSIGVDLSKDQLDLVYKTFLGFADKKKEIIDTDIPQILKASGI | -0.265
33 | HMGSEYPSNPLASRWAKGVRLYHDEWGYGVIQAARGSEPDDYVITVRFESGAEKSFLPKFQAHSLMIVKD | -0.974
34 | HMGDPEYFKKQLGDFMDRFNITSEDIKNLSIAGAINRMMNNAEGEDKTVLSKLLETVNKSGVGNLPAKTI | -0.144
35 | HMLMTGSLQTKHGKYYVVVRIPDGLGNTKAKWINTGIPTDGNNKRKAQQRRIEILTELEENKD | 0.168
36 | HMRGVDRPLTLPRHWRRNAGRLVKVTLANGSAVTGRVLDPGEERVTLEVSGERHEVAYADVKKALVQVEF | -0.32
37 | HMVVQTELVRISITSLSGEDIRRLVQIKVVGATIEPFEGGGFLITGTAEQIAKAKDFLNSMSTEF | -1.29
38 | HMLMYAQDEKEEASNNIPYRLLHMSFTKEQKAELQRAMDVRVPKDIILSYFYPDTPVARMMEIRRQYESA | 0.12
39 | HMQKDAYVPDIISKLKSSRMIVVEGTIYPLLTRLKNTGLLSYRWEESLQGPPRKYYSITEQG | -0.0816
40 | HMSDGYETLVNMAKPFLNNSKQITENDITDAVNTVSVMLKKRYDMTDEDIRKAVSELLHFYA | -0.791
41 | HMDQTIFFGQQKAINNLSTDAGLSATELDEYLKKRYKRPLYQLTQAEGAEIIKGFQDGALSRSSILDYTK | 0.22
42 | HMSSPVGIAQATTYVYVRAGHSMQAAKVGVLSPGEKVGVTGRSAQGFSEVVYNGVHRWVGSRYLSPT | ≥ 0.43
43 | HMTEKSTRSVPQEHEGKRLDVAAALLFPVYSRSELARRIDAGYLLLNGKGSTPKTKVHELDLIELLEV | -1.65
44 | HMSQVHYAVLFKNASAAEATEIVTYARETLGVQDIKINANGDILVPEDKVEEMRVSMSIAGFPK | -0.349
45 | HMASVLTGMLGRVTGELAPKGIVMVGNETWTAVSEDDSVIRIGEPVEVRSVEGLILTVFRRID | -1.55
46 | HMYIDNVTIYDVGFNERIVHALERAGVKNLYDLSQMNFYQLQRIRNLGASSLEKVINRIHSYGILLKNES | -0.761
47 | HMKLRYRTQEELLGVAREYRRRGLPLSVIVIDFYHWTKFGDWKFDPAYWPDPVGMVRELRDMGVEAAV | 0.22
48 | HMRNDIFDQLTEREMQILQEVAKGYRNKQIADHLFISESTVKVHMKSLLKKLQVPSRTAATVLYLERYG | -0.406
49 | HMNDPIESLTPREREVLTLMAEGRTNAAIAAQLVVTEGAVEKHTQHIFAKLGLLPDSAVHRRVKAVLALLS | -0.637
50 | HMTEAVYMPALQNKTLEEAQRIVEQYDLELEYTYEANAQVEEGRILSQTPQMGVLVERGEKVQAVVSLG | -0.43

Row | Sequence | soluble fraction (log2)
51 | HMPETYVVFSKDGYANLRRGTTINSEILDVLDNGEYVTKLDEVGEWYRVEYADFDGGYIHKSQLKNI | -1.58
52 | HMNLGAHVYWRNHRAYGDFREYEDVGGGREALALPGSTWGTKDPRVAQALFAARLTEFQEARVGR | -0.148
53 | HMTTVTVGSKVRVKAGATFSDGAKPFAEVYNTVYDVQLLSHNGKEARIGIGDQWTGWIYISDLYLANQPAP | -0.101
54 | HMDPERLDQLQNPDPAVRREAIIALGRSKDLAALPELAKVYKNDPVPELRELARQAGRYIQQENRP | 0.254
55 | HMSERVVEIDPSQLRPGLFIRLPSGWMNHPFLFNQFRINSAEQVEIIQKLGLKTVQYLPERSSTQALPRA | -0.644
56 | HMQIKNVDYGTFLDMLDEKNVKEVEIEDEQIVFTDNADPTGYYTTGRMEDPDLVDRLHNSGATFSAI | -0.841
57 | HMTSPVEDLLDKAIQLYREENFEEAIAKWEEVLALDPSKLEAKFNIEIAQDRIKEKQIQEDLKSS | -0.935
58 | HMRAMWENLFFQYKEGFLPEEYYKQGIATGIRLAGPKFVEMNIPMQKEFEDEVHRLLAEHEKSVK | -0.795
59 | HMEIESAHAQVLGVREIAASGATQHWIAFRFSDGHQRELLATPSQADVIFRGQQGVVHFAGDRLTGWIPE | -0.198
60 | HMDKPIVFLEDTKAHKSSDLQSPVYMTVPKGTIAFVIAEKGDWSQVYAGRVLDRNLASQWVRRGFS | 0.191
61 | HMNELTDKQILLFSNKLAHNIPFSSKYSKPGESYEEFAERLANELIDPQKVKLYKPYLEEVGFK | 0.112
62 | HMEAYDTMEDRTTLAPGFAKLDKRERYILHLRFFEGLTQSQIAERVGISQMHVSRLIRRSLEKLREEIGD | -0.4
63 | HMTVKEYNRAVDEYSDAVWRFIRGNLRDEDRANDIVQDSFEKLWMHVTEIDYSVAKSWLFSTAYNNMIDI | -0.899
64 | HMNQRTATVTASQLNVRSGPSTAYSIVHVLRQGETVEVIGESDGWYQIRLKDGRVGWSSGQYLNLN | -0.481
65 | HMNTRWDDAAQTWLRKVIEQQPVLVQISAAKRLRDQAEQRAREAGEEVVTEQHVKRAGLELGFGEP | -0.239
66 | HMMEERVIEFANVLRRNGVRVSLAENMDAFRALKSLGISDPLLFRHALRATLIKRGSDIQPFEELFDFFFL | -1.08
67 | HMAHETIDVAALRVGMFVQLDLGWLSHPFPLSSFRISSEDQIATIRALGLKRVRWSSEQSDS | -2.26
68 | HMDHAHWEEHEVKLLLTLAIQEKEKFNWNQFGLTREGWRNIYPHFPQYSRKQINNKFDFLKQKYRAWKDS | -1.09
69 | HMNSEEINDVRKAVDELPTHLREILLLNYFQQMSYVQISDSLEIPLGTVKSRLHAAVAAFRNAWQSSQEE | -0.154
70 | HMLSAGETYTLGYLKASDGILFTAADGSEQTVMQRVQVRLYDNGDGTYTARLADDIAYSAVVTEDMIDK | 0.256
71 | HMRAVEGKRLKRLLRTNLIAIERDQILQYPLRKRPLAIVTRAVRATNPDAVIVNDAGDDVFARALDVLLAS | -1.23
72 | HMLERKPVLVASRDLPALAVIGKDDLSVELLRTAPVGSYDRPEALLGKRVWVAVPAGSILSAATLEP | -0.0428
73 | HMGKAVTLEEARAIIQAKVPGASPDMIQIWEEHGDGRGRYEGELSYNNMKYEFEMDPKTGIIFDWNA | -0.189
74 | HMLGARSLNEAVARNLPQILAKYQLIHIAGKNGFNPELQGRGYVQYEYVDTELKDLMALADIVVSR | -0.0512
75 | HMDEMPVEFVKISIKAGHPWENRKIKDLASLPDLLLVLILRGEERIIPNGNTVVLAGDKIVLSALSPE | -1.94
